In the DeepSol protein solubility set:

Experiment: soluble on expression in E. coli; label from the status in PepcDB or PDB records

Sequence | soluble on expression in E. coli
MAVGLGPLPALHPVPGFELGISSAGIKRPGRKDVVVMRCAEGSSVAGVFTLNAFCAAPVILAKQRVQGTVRYLLTNTGNANAGTGEPGLVAARRTCEALAQLTGVDASAVLPYSTGVIGEPLPVEKIEGALQAALDDLSVDNWAAAATGIMTTDTLPKGASRQFTHDGVTITVTGISKGAGMIRPNMATMLGYIATDAKVSQSVLQDLIRDGANKSFNRLTIDGDTSTNDCCMLIATGQADLPEITEAKGLLFEALKKAVFDVCMEVAQAIVRDGEGATKFVTVEVNGGGNHQECLDVGYAVAHSPLIKTALFASDPNWGRILAAVGRAGVPDLDVSKIDVFLGGVCIASQGCRATTYTEEQGSAVMAEAEITIRIELGRGDCSETIWTTDLSHEYVKINAEYRTLEHHHHHH | not soluble
MNPALESLLADADLCVKCGLCSPHCPTYRQTADENESPRGRIALIQGWATGRLSLTAALRGPLDDCLLCRNCEAVCPAKVPYSRLVDRFRAETGQRRKPLEHHHHHH | not soluble
MPAAAPGKNFDLSHWKLQLPDANTTEISSANLGLGYTSQYFYTDTDGAMTFWAPTTGGTTANSSYPRSELREMLDPSNSKVNWGWQGTHTMKLSGKTVQLPSSGKIIVAQIHGIMDDGTNAPPLVKAVFQDGQLDMQVKQNSDGTGSDVHNYFTGIKLGDLYNMEIRVTDGVAYVTMNGDTRSVDFVGKDAGWKNLKYYFKAGNYVQDNTSTGGSAIAKLYSLSVSHSNLEHHHHHH | soluble
MGSDKIHHHHHHMNRNNFSHEIIEPIDNLDVNFKLFDDSGSYVANHWHNSLEIIYITSGDLQINMEGYTYNLKANECMFINSGIIHSTRCIYQNTSILLQVPLSFLNKYIPDFKNCYFDFKVNANDNNYKKNSSKVKLILENMREIKLSSPPAANLLFTSLLFELLFELYTNFKISVGNKNMKKTVLDLSKFEPVLEYTKINYKMPISINKIAKVAHLQPEYFCRKFKQYMGQTYLEYLNDVRISHIYKDLINTNDTLCSILEAHGFTNTKLFYRIFKEKFKCTPKHIRKKST | not soluble
MEAKLQVGVLGFGTVGSGVIHILEEHQEKISQVTGYHISVKKVLVRDLEKNRRYETKGFELTTNPSDVLDDPEIAVVVEVMGSITTAREYILQALKAGKHVVTANKDLIALHGDELVAVAQANNCDLFYEASVAGGIPILRTIVNSLAADKIQKVMGIVNGTTNFMLTKMTTEKK | not soluble
MAKAPDIVDLLTLAVDRNASDLVITVGLPPMIKIDGEFHPTEHEALTPQDTRRLMYALMDEKQQRHFEEEKELDFSFSLPAKGRYRVNVFLQRGSVGGVLRVVPTVVKSFEELGLPKNIGELALTPRGLLLITGPTGSGKSTTLASMIDYINERRRAHIVTIEDPIEFFHRHKTSIINQREIGSDTHGFHKALRSVLRQAPDVILVGEMRDYETISAAITAAETGHLVMGTLHTNSAPETIDRIIDVFPEAQQEQVRVQLANNLVAVMTQQLLPKAFGGGRVLAYELMIATSAVRALIREGKSHQLVSVIQTGGQYNMITMDACLADLYKRKLITYEMGQSRAVDPKEFARLAGAAAPAASTNTGAQRRA | soluble
GSNSLMERIHEQIKKGELALFYLQEQINHFEEKPTKEMKDKIVAEMDTIIAMIDGVRGVLDRLMQRKDLDIFEQYNLEMAKKSGDILERDLKKEEARVKKIEV | soluble
MIKPALLDKKIEKPHSWEDIPHGEWICELIQSRLDEWCPKLFGYHMLKIGGLSAELDSRFCNIKHQVNLDNKNSLRNITAELPQLPFLEKSIDACVLAHQLDYSSDPHQLLREIDRVLIGDGYVILTGFNPMSAIGLASLFPWRKNNLPWSGRMFTPHRIKDWLSVLNFEVVYSDCFALAPLTRYRTMWTWFEGLGGDAVKPISGIYFIVARKRTYPLRPIKSAWKKKPKLAPISVAQTRQGKMKSD | not soluble
MLARTIQRFSVVAKRGYAAAAPAANANPEELRLTFASPDTAVFSNAVVKQVDVPTLAGMVGVLANHVPTIGVLKPGVVSVTTNEGTVQRLFVSSGTLSVNIDGSCQVLAEEVLKVEEIDESAARAELDAAQRASGEGSEVARAEAQIRAEVAEALIKAATNQQ | not soluble
MGSDKIHHHHHHMMELRYNPLTDEWVIVSAATQKRPVQPSKTECPICVGGLELPEEYDLVTFENRYPSLKKDPPPVNWKEKGPFRKEESRGVCEVVVYTSDHNTALPGMPLKQIEKLVEMWVDRTRDLSQHDFVKYIFIFENRGKEVGASLPHPHGQIYAFPFLPKRIEVKIGAMRKWYEEKRKCPICEVLESEGEERKVYETEHFLALVPFYARFPYEVHIYPKRHVSTLLEFSKEEKKEFAKVLKVVTAKYDKLFDQEFPYMMMFFQAPFNEEDVSHFFHFHVEFNPPKRDRDKLKWMASVETGTWAFINPVVPEEAARQLRETEVEI | not soluble
MVKLENKPTIISTGTIVGPKEGEGPLKDYFDMIMTDDLYGEKTWELAESKMVETASQQAIQKAGKKLSDVNYMLGGDLINQIVPASFAARELAIPFLGIYGACSTMAEGLCIGSMLIDGGFADLVLSGTSSHYCTAERQFRFPLELGNQKPMTAQWTVTGAGSVLLAPNGDGPKVKYVTVGKVIDEGIDDGNNMGPAMAPAAIDTIYSYFEDTNDDPNSFDIIATGDLGTLGKQIAEDFLKEKGVDISKVYTDCGIEMFNLKEQDVHCGGSGCGCSATVFAGYIYDKLRKKEFNKVMLVSTGALLSPTSTLQKQTIPCVAHAVVIVNELEHHHHHH | not soluble
MSLGSGSGLSYNAGITQDNFLGMGSSLGLNGSRNTDSTNVNLSYTEPYFTKDGVSLGGNIFYEDYDNSARKASAAYKRKTYGASGTLGFPVDENNSYYLGLGYTHDKLRNVEREYTREKYVNSMKFPINPQNSHYDRIQSADFDLSFGWNYNNLNRGYFPTAGSSANISGKLTLPGSDNKYYQVGTNFSGYIPLNSEHKWVIATKGGLAYTNSFGGKEVPFYQLYSAGGMGSLRGFAGGSIGPKAIYYREDGFKAPSQDVIGGNAMVNASLELIIPAPFISDKYQHNVRTSVFVDAATVWNTKWKQSKADYPNLPDFGDYKRVRASAGIALQWQSPIGPLSFSYAKPIKKYAGDEIEQFQFTVGSTFEGHHHHHH | not soluble
MSLKTVVVIGGGITGLSTMFYLEKLKKDYNIDLNLILIEKEEYLGGKIHSVEEKDFIMESGADSIVARNEHVMPLVKDLNLEDEMVYNETGISYIYSENMLHPIPSDTIFGIPMSVQSLFSSTLVSTKGKIVALKDFITKNKEFTKDTSLALFLESFLGKELVERQIAPVLSGVYSGKLNELTMASTLPYLLDYKNKYGSIIKGFEENKKQFQSAGNKKFVSFKGGLSTIINRLEEVLTETVVKKGVITTAVSKQEDRYEISFANHETIQADYVVLAAPHDIAQTLLQSNELNEQFNTFKNSSLISIYLGFDILDEQLPADGTGFIVTENSDLHCDACTWTSRKWKHTSGKQKLLVRMFYKSTNPVYETIKNYSEEELVRVALYDIEKSLGIKGEPEVVEVTNWKDLMPKYHLEHNQAVQALQEKMTNLYPNVYLAGASYYGVGIGACIGNGKNIANEIMDTLNKEGHHHHHH | soluble
MFSIPPLPWGYDGLAAKGLSKQQVTLHYDKHHQGYVTKLNAAAQTNSALATKSIEEIIRTEKGPIFNLAAQIFNHTFYWESMCPNGGGEPTGKVADEINASFGSFAKFKEEFTNVAVGHFGSGWAWLVKDTNSGKLKVYQTHDAGCPLTEPNLKPLLTCDVWEHAYYVDYKNDRAAYVQTFWNVVNWKNVERQL | soluble
MAGDPMSLKSYSTPTYWQRVKVACQYLFPQLPITRLAGWLAEQKWGMVTHFIIRIFAKQYNVNLAEAEKTNPADYTTFNEFFLRPLKENARPINQDDQAVCLPADGKISELGQINENRLLQAKGHYFTLETLLANDEEMAESFKNGSFITTYLSPRDYHRVHMPCDATLKKMIYVPGDLFSVNSFLAEHIPNLFARNERVICEFETAFGPMVQILVGATITASISTVWAGIINPPRSKDVVEYNYQTTGETAIHLKKGDEMGAFRLGSTVINLFPQATVELVSHLQAGVETRMGERFAKIIKLEHHHHHH | soluble
MVSTDWKSDLRQRGYRLTPQRQLVLEAVDTLEHATPDDILGEVRKTASGINISTVYRTLELLEELGLVSHAHLGHGAPTYHLADRHHHIHLVCRDCTNVIEADLSVAADFTAKLREQFGFDTDMKHFAIFGRCESCSLKGSTTDS | soluble
